These results are taken from US20030219446A1.

pIC50: −log10 of the molar value.

The term pIC50 denotes the negative decadic logarithm of the IC50, by convention in mol/L. A high value points to a small IC50.

For assay [1], the target named is CD28 receptor (human) (UniProt P10747). Briefly: cell-based or functional assay.
Assay [2] concerns the target CD28Ig fusion protein (human) (UniProt P10747). Briefly: plate binding assay, ^125I-B7Ig (24 nM) on immobilized CD28Ig.
For assay [3] the target is unchanged. Briefly: competition of ^125I-B7Ig binding to immobilized CD28Ig by unlabeled B7Ig.
Assay [4] deals with CD28 receptor (human) (UniProt P10747). Put plainly: flow cytometry, FITC-conjugated mAb 9.3 on phytohemagglutinin-stimulated T cells. In general terms: A flow cytometer gives signals particle by particle.
Assay [5] shares this target. Briefly: flow cytometry, FITC-conjugated mAb 9.3 on CD28^+ CHO cells.
The target of assay [6] is CD28Ig fusion protein (human) (UniProt P10747). Briefly: competition of ^125I-B7Ig binding to immobilized CD28Ig.
Assay [7] shares this target. Put plainly: competition of ^125I-B7Ig binding to immobilized CD28Ig by the unlabeled competitor.
Assay [8] concerns the target B7 antigen (human) (UniProt P33681). Put plainly: flow cytometry, direct staining of 1A2 cells (negative for CD28 adhesion; presence of B7 not shown).
Assay [9] shares this target. Put plainly: flow cytometry, Raji cells preincubated with unlabeled BB-1.
Assay [10] shares this target. Briefly: flow cytometry, Raji cells; -cold minus +cold.
For assay [11] the target is unchanged. Put plainly: cell-based or functional assay.
The target is the same in assay [12]. Briefly: flow cytometry, THP-1 cells preincubated with unlabeled BB-1 (negative for CD28 adhesion).
The target is the same in assay [13]. Briefly: flow cytometry, direct staining of HSB2 cells (negative for CD28 adhesion; presence of B7 not shown).
Assay [14] has the same target. Put plainly: flow cytometry, HL60 cells preincubated with unlabeled BB-1 (negative for CD28 adhesion).
Assay [15] shares this target. Put plainly: flow cytometry, direct staining of Namalwa cells (negative for CD28 adhesion; presence of B7 not shown).
Assay [16] has the same target. Briefly: flow cytometry, 5E1 cells preincubated with unlabeled BB-1.
Assay [17] shares this target. Briefly: flow cytometry, direct staining of Raji cells (positive for CD28 adhesion).
The target is the same in assay [18]. Briefly: flow cytometry, CEM cells preincubated with unlabeled BB-1 (negative for CD28 adhesion).
The target is the same in assay [19]. Put plainly: flow cytometry, Jijoye cells; -cold minus +cold.
Assay [20] has the same target. Briefly: flow cytometry, 5E1 cells; -cold minus +cold.
The target is the same in assay [21]. Briefly: flow cytometry, HSB2 cells preincubated with unlabeled BB-1 (negative for CD28 adhesion).
The target is the same in assay [22]. Briefly: flow cytometry, 1A2 cells preincubated with unlabeled BB-1 (negative for CD28 adhesion).
For assay [23], the target named is B7Ig fusion protein (human) (UniProt P33681). Put plainly: competition of ^125I-B7Ig binding to immobilized CD28Ig by the unlabeled competitor.
In assay [24] the target is B7 antigen (human) (UniProt P33681). Briefly: flow cytometry, Jijoye cells preincubated with unlabeled BB-1.
Assay [25] has the same target. Briefly: flow cytometry, Daudi cells; -cold minus +cold.
Assay [26] shares this target. Put plainly: flow cytometry, direct staining of T51 cells (positive for CD28 adhesion).
For assay [27] the target is unchanged. Put plainly: flow cytometry, direct staining of Jijoye cells (positive for CD28 adhesion).
The target is the same in assay [28]. Put plainly: flow cytometry, direct staining of HL60 cells (negative for CD28 adhesion; presence of B7 not shown).
Assay [29] shares this target. Put plainly: flow cytometry, direct staining of THP-1 cells (negative for CD28 adhesion; presence of B7 not shown).
Assay [30] shares this target. Briefly: flow cytometry, direct staining of Daudi cells (positive for CD28 adhesion).
Assay [31] shares this target. Briefly: flow cytometry, Namalwa cells (negative for CD28 adhesion); -cold minus +cold.
Assay [32] shares this target. Put plainly: flow cytometry, Daudi cells preincubated with unlabeled BB-1.
For assay [33] the target is unchanged. Put plainly: flow cytometry, direct staining of 5E1 cells (positive for CD28 adhesion).
Assay [34] has the same target. Briefly: flow cytometry, T51 cells preincubated with unlabeled BB-1.
Assay [35] shares this target. Briefly: flow cytometry, T51 cells; -cold minus +cold.

In the assay with CD28 receptor (human) [1], “B7Ig fusion protein (from UniProt P33681 35-215; P01857 99-330) (Fc fusion)” displayed a [^3H]-T incorporation of PBL, B7Ig (immob.), +Anti-CD3, Exp. 1 of 174000 cpm and a [^3H]-T incorporation of PBL, B7Ig (immob.), -Anti-CD3, Exp. 1 of 100 cpm. Moreover, the radioactivity bound without competitor in assay [2] is 7800 cpm. The pIC50 in assay [3] was 6.55.

In the assay with CD28 receptor (human) [1], “Monoclonal antibody (mAb) 9.3 (anti-CD28)” gave a [^3H]-T incorporation of PBL, mAb 9.3 (immob.), +Anti-CD3, Exp. 1 of 137000 cpm; a [^3H]-T incorporation of PBL, mAb 9.3 (immob.), -Anti-CD3, Exp. 1 of 100 cpm; a [^3H]-T incorporation of PBL, mAb 9.3 (soln.), +Anti-CD3, Exp. 1 of 156000 cpm; a [^3H]-T incorporation of PBL, mAb 9.3 (soln.), +Anti-CD3, Exp. 2 of 75800 cpm. In the assay with CD28 receptor (human) [1], the [^3H]-T incorporation of PBL, mAb 9.3 (soln.), -Anti-CD3, Exp. 1 is 300 cpm; the [^3H]-T incorporation of PBL, mAb 9.3 (soln.), -Anti-CD3, Exp. 2 was determined as 400 cpm; the adhesion of B7 transfected COS cells to CD28^+ CHO cells without EDTA, blocking by mAb 9.3 is 40%; the adhesion of T51 cells to CD28^+ CHO cells, reduction by mAb 9.3 with EDTA was 93%. Also, in the assay with CD28 receptor (human) [1], the adhesion of T51 cells to CD28^+ CHO cells, reduction by mAb 9.3 without EDTA came out at 62% and the half-maximal inhibition of CD28-mediated adhesion of PM lymphoblastoid cells to CD28^+ CHO cells came to 10 nM. The mean channel (linear fluorescence units) (linear fluorescence units) with CD28 receptor (human) [4] was 11.3. In the assay with CD28 receptor (human) [5], this substance registered a mean channel (linear fluorescence units) (linear fluorescence units) of 116. In assay [6], this substance gave a fold more effective as a competitor than B7Ig of 65 fold. The substance further had a pIC50 in assay [7] of 8.37.

The substance mAb 9.3 (Fab fragments) yielded a [^3H]-T incorporation of PHA blasts, stimulation B7^+ CHO, mAb 9.3 Fab in the assay with CD28 receptor (human) [1] of 132000 cpm.

In the case of mAb BB-1 (anti-B7) (antibody), the mean fluorescence, FITC-BB-1 -COLD with B7 antigen (human) [8] was found to be 4.5 linear units; in the assay with B7 antigen (human) [13] it was 2.3 linear units; with B7 antigen (human) [15], 3.8 linear units; with B7 antigen (human) [17] it was 7.1 linear units; with B7 antigen (human) [26], 16.4 linear units; with B7 antigen (human) [27], 17.8 linear units. Also, the mean fluorescence, FITC-BB-1 -COLD worked out at 3.1 linear units with B7 antigen (human) [28], 3.1 linear units in the assay with B7 antigen (human) [29], 6.4 linear units with B7 antigen (human) [30] and 13 linear units with B7 antigen (human) [33]. Moreover, the mean fluorescence, FITC-BB-1 +COLD with B7 antigen (human) [9] came to 2.8 linear units; in the assay with B7 antigen (human) [12], 3 linear units; with B7 antigen (human) [14], 3.1 linear units; with B7 antigen (human) [16], 2.4 linear units; in the assay with B7 antigen (human) [18] it was 1.9 linear units; in the assay with B7 antigen (human) [21], 2.3 linear units. Moreover, the mean fluorescence, FITC-BB-1 +COLD with B7 antigen (human) [22] turned out to be 4.3 linear units; in the assay with B7 antigen (human) [24], 2.8 linear units; in the assay with B7 antigen (human) [32], 2.8 linear units; with B7 antigen (human) [34], 3 linear units. Besides, the SPECIFIC BINDING (mean fluorescence) with B7 antigen (human) [10] was determined as 4.3 linear units; in the assay with B7 antigen (human) [19], 15 linear units; with B7 antigen (human) [20], 10.6 linear units; with B7 antigen (human) [25], 3.6 linear units; with B7 antigen (human) [31], 1.6 linear units; in the assay with B7 antigen (human) [35] it was 13.4 linear units. Besides, the [^3H]-T incorporation of PHA blasts, stimulation B7^+ CHO, mAb BB-1 with B7 antigen (human) [11] was found to be 98300 cpm. Moreover, the adhesion of Jijoye cells to CD28^+ CHO cells, blocking by mAb with B7 antigen (human) [11] was determined as 60%. For the same substance, the pIC50 in [23] was 6.85.
